In this experiment the target is Recombinant Mip (25 kDa) (L. pneumophila) (UniProt Q5ZXE0). The experiment is described as follows: co-IP.

Where “and” joins values, the source holds several entries; their conditions need not be identical. Equal entries are not always repeated.

“Flagellin FlaA (LPC_0756), native (natural protein)”: the antibody signal from Western blot (ImageJ) (relative units) is 4380 and 4310; the band intensity in Coomassie stained gel (ImageJ) (relative units) was 5680 and 5740.
On to Lpc2061-6xHis-Tag (natural protein), for which the antibody signal from Western blot (ImageJ) (relative units) was 4690 and 4520; the band intensity at 15 kDa in Coomassie stained gel (ImageJ) (relative units) was 4600 and 7390; the band intensity in Coomassie stained gel (ImageJ) (relative units) is 1900 and 795.
For SspB-Strep-TagII (natural protein), the antibody signal from Western blot (ImageJ) (relative units) was 5030 and 5180; the band intensity in Coomassie stained gel (ImageJ) (relative units) was 4300 and 4240.
